Data reported in patent US20160312212A1, “COW ANTIBODY SCAFFOLD POLYPEPTIDE METHOD AND COMPOSITION” (Roche Sequencing Solutions, Inc., priority 2015, published 2016).

Biological target: T1, human thrombin (Homo sapiens, UniProt P00734)
T1 construct: biotin (chemical label)
Assay: mRNA display selection against thrombin, selected sequences ranked by next-generation-sequencing frequency
Format: binding
Conditions: for percentage (%): share of recovered sequences; for counts: top binders ranked by frequency
Experimental: 1 ml of the fusions from the previous step were added to 50 ul of M270 SA beads blocked with TBSTE+2% BSA at room temperature, and were incubated at room temperature for 30 min, and the supernatant was removed for binding with biotinylated thrombin.
8) Pre-Selected Fusions were Bound to 3 ul Biotinylated Human Thrombin at 1 U/ul at 4° C. for 1 h with Rotation
25 ul of M270 SA bead suspension was washed and blocked with TBSTE+2% BSA. The beads were then collected, mixed with 1 ml of each fusion/target complex, and incubated at room temperature for 30 min. The mixture was washed 3× in TBSTE, transferred to a new tube, and the cDNA was eluted with 50 ul of 0.1 N NaOH at room temperature for 3 min. Then 2.5 ul 3M NaAc, pH5.5. BioRad spin column was added and the volume was adjusted to 147 ul with H2O.
The following rounds of selections (3-5) were carried out following the above procedure with increased stringency (e.g. lower amounts of fusion molecule input and increased number of washing steps). After each round of selection, similar PCR amplification was done to prepare the DNA library for the next round of selection.
In summary, for example, one round of mRNA display consisted of the following steps: in vitro transcription, DNase digestion, conjugation with the puromycin oligo linker, in vitro translation/fusion formation, FLAG fusion molecule purification, reverse transcription, pre-selection or functional selection, and regeneration of the selected sequences. Briefly, the cDNA library was in vitro transcribed using T7 RNA polymerase, the mRNA templates with puromycin at the 3′ ends were generated by crosslinking with an oligonucleotide containing a psoralen residue and a puromycin residue at its 5′ and 3′ ends, respectively, and in vitro translation was performed using an NEB Purexpress Δ123 kit. The desired mRNA-protein fusions were then isolated from the translation reaction mixture using anti-FLAG magnetic beads. The fusion molecules were then converted into DNA/RNA hybrids through reverse transcription. This step removed secondary mRNA structures that might interfere with the subsequent selection.
To analyze the results of the selection, the DNA libraries were amplified after each round of selection using specially-designed sequencing primers that harbor Illumina next-generation-sequencing adapters. The libraries were mixed, further purified and next generation sequencing was performed. Peptide sequences recovered after each round of selection were called out according to their unique sequencing barcode and further comparison and analysis was done. Next-generation-sequencing provided the advantages of high throughput and a more complete overview of the selected species.
When thrombin was used as a target, a total of three rounds of selections were carried out. The selection pressure was increased by increasing the washing stringency (from three times to five times then to ten times for selection round 1, 2 and 3). Table 1 illustrates the top binders (ranked according to their frequency) after each round of selection. After selection round 3, more than 30% of the selected peptides contained the conserved “RDPGR” (SEQ ID NO:331) motif. The most abundant peptide “RDPGRLIFQS” (SEQ ID NO:332) was chosen for further analysis.

[1] = Round 2 of selection, five washes
[2] = Round 1 of selection, three washes
[3] = Round 3 of selection, ten washes

Row | percentage (%) [1] | counts [1] | percentage (%) [2] | counts [2] | percentage (%) [3] | counts [3] | Substance
1 | 0.0052% | 86 |  |  |  |  | ETRIYIRFHT (MGCTSVHQETKKYQSETRIYIRFHTSYTYNYEHVDVWGCGSADYKDDDDKKK)
2 |  |  | 1.2E−03% | 40 |  |  | HCDTLELRPA (MGCTSVHQETKKYQSHCDTLELRPASYTYNYEHVDVWGCGSADYKDDDDKKK)
3 | 0.0109% | 179 | 1.3E−03% | 42 |  |  | HRLQIATVYT (MGCTSVHQETKKYQSHRLQIATVYTSYTYNYEHVDVWGCGSADYKDDDDKKK)
4 |  |  | 1.2E−03% | 38 |  |  | KCCTSMVIQL (MGCTSVHQETKKYQSKCCTSMVIQLSYTYNYEHVDVWGCGSADYKDDDDKKK)
5 |  |  | 1.2E−03% | 39 |  |  | LKQTDFRTPI (MGCTSVHQETKKYQSLKQTDFRTPISYTYNYEHVDVWGCGSADYKDDDDKKK)
6 |  |  | 1.2E−03% | 38 |  |  | LQRAISSYSR (MGCTSVHQETKKYQSLQRAISSYSRSYTYNYEHVDVWGCGSADYKDDDDKKK)
7 |  |  | 1.3E−03% | 43 |  |  | PLIHPRRGYA (MGCTSVHQETKKYQSPLIHPRRGYASYTYNYEHVDVWGCGSADYKDDDDKKK)
8 |  |  | 1.4E−03% | 44 |  |  | PPVLPQLVLL (MGCTSVHQETKKYQSPPVLPQLVLLSYTYNYEHVDVWGCGSADYKDDDDKKK)
9 |  |  |  |  | 0.020% | 164 | QFHLEFAFTL (MGCTSVHQETKKYQSQFHLEFAFTLSYTYNYEHVDVWGCGSADYKDDDDKKK)
10 |  |  |  |  | 0.025% | 211 | QMSFRFEVRV (MGCTSVHQETKKYQSQMSFRFEVRVSYTYNYEHVDVWGCGSADYKDDDDKKK)
11 | 0.0475% | 781 |  |  | 1.144% | 9534 | RDPGRIVFNN (MGCTSVHQETKKYQSRDPGRIVFNNSYTYNYEHVDVWGCGSADYKDDDDKKK)
12 | 0.1608% | 2642 |  |  | 20.512% | 170914 | RDPGRLIFQS (MGCTSVHQETKKYQSRDPGRLIFQSSYTYNYEHVDVWGCGSADYKDDDDKKK)
13 | 0.0993% | 1632 |  |  | 10.038% | 83638 | RDPGRVIFEI (MGCTSVHQETKKYQSRDPGRVIFEISYTYNYEHVDVWGCGSADYKDDDDKKK)
14 | 0.0170% | 278 |  |  | 0.084% | 702 | RDPYNVLISL (MGCTSVHQETKKYQSRDPYNVLISLSYTYNYEHVDVWGCGSADYKDDDDKKK)
15 |  |  | 1.4E−03% | 46 |  |  | RFHLFILGTS (MGCTSVHQETKKYQSRFHLFILGTSSYTYNYEHVDVWGCGSADYKDDDDKKK)
16 |  |  |  |  | 0.031% | 258 | RSHGQFSFTF (MGCTSVHQETKKYQSRSHGQFSFTFSYTYNYEHVDVWGCGSADYKDDDDKKK)
17 | 0.0052% | 86 |  |  |  |  | RTKIK*NGL*
18 |  |  |  |  | 0.023% | 195 | SIEFGLTFSF (MGCTSVHQETKKYQSSIEFGLTFSFSYTYNYEHVDVWGCGSADYKDDDDKKK)
19 |  |  |  |  | 0.027% | 224 | SLFVEYRITY (MGCTSVHQETKKYQSSLFVEYRITYSYTYNYEHVDVWGCGSADYKDDDDKKK)
20 |  |  | 1.5E−03% | 47 |  |  | SQSERATPRY (MGCTSVHQETKKYQSSQSERATPRYSYTYNYEHVDVWGCGSADYKDDDDKKK)
21 |  |  | 1.3E−03% | 42 |  |  | TQPKLTIEQR
22 | 0.0051% | 84 |  |  | 0.021% | 175 | VTSTYMFMYA
23 | 0.0046% | 75 |  |  |  |  | VVEFHFKWCI

Row | Substance | percentage (%) [1] | counts [1] | percentage (%) [2] | counts [2] | percentage (%) [3] | counts [3]
24 | AAVRLNSSS* | 0.0046% | 75 |  |  |  | 
